B1: … (peptide)
peptide: KYPVEWAKF
B2: … (peptide)
peptide: YYEVHKELF
B3: … (peptide)
peptide: AYTLIAPNI
B4: … (peptide)
peptide: RYPDNLKHLYL
B5: … (peptide)
peptide: LYITEPKTI
B6: … (peptide)
peptide: LYIDRPLPYL
B7: … (peptide)
peptide: LYHDIFSRL
B8: … (peptide)
peptide: RYPDNLKHL
B9: … (peptide)
peptide: LYNKGFIYL
B10: … (peptide)
peptide: NYINRILKL
B11: … (peptide)
peptide: RYAEEVGIF
B12: … (peptide)
peptide: TYIKPISKL
B13: … (peptide)
peptide: TYIESASEL
B14: … (peptide)
peptide: VYQGHTALL
B15: … (peptide)
peptide: TYELRYFQI
B16: … (peptide)
peptide: EYINQGDLHEF
B17: … (peptide)
peptide: VYTLDIPVL
B18: … (peptide)
peptide: KYMVYPQTF
B19: … (peptide)
peptide: KFSSFSLFF
B20: … (peptide)
peptide: EYSLFPGQVVI
B21: … (peptide)
peptide: HYPPVQVLF
B22: … (peptide)
peptide: KYQDILETI
B23: … (peptide)
peptide: DYLKGLASF
B24: … (peptide)
peptide: VYVGGGQIIHL
B25: … (peptide)
peptide: YFIDSTNLKTHF
B26: … (peptide)
peptide: IYATEAHVF
B27: … (peptide)
peptide: YYVESGKLF
B28: … (peptide)
peptide: AYLHSHALI
B29: … (peptide)
peptide: VYGFQWRHF
B30: … (peptide)
peptide: YYGPSLFLL
B31: … (peptide)
peptide: IYSWILDHF
B32: … (peptide)
peptide: RYISDQLFTNF
B33: … (peptide)
peptide: LFIPSSKLLFL
B34: … (peptide)
peptide: TYSVSFPMF
B35: … (peptide)
peptide: TYGDAGLTYTF
B36: … (peptide)
peptide: RYLNKAFHI
B37: … (peptide)
peptide: HYSQELSLLYL
B38: … (peptide)
peptide: DYTTWTALL
B39: … (peptide)
peptide: NYYEVHKELF
B40: … (peptide)
peptide: VYEDQVGKF
B41: … (peptide)
peptide: PYRLIFEKF
B42: … (peptide)
peptide: EYNQWFTKL
B43: … (peptide)
peptide: AYVVFVSTL
B44: … (peptide)
peptide: QYLGQIQHI
B45: … (peptide)
peptide: VYWDSAGAAHF
B46: … (peptide)
peptide: QYLQDAYSF
B47: … (peptide)
peptide: VFTRVSSFL
B48: … (peptide)
peptide: IYLVSIPEL
B49: … (peptide)
peptide: KFVDSTFYL
B50: … (peptide)
peptide: TFSVSSHLF
B51: … (peptide)
peptide: VYVSDIQEL
B52: … (peptide)
peptide: TYKDEGNDYF
B53: … (peptide)
peptide: YYKSTSSAF

Where only a bound is given, the exact number is not on record here.

The test concerns the target HLA-A*24 (human). Description: UV-exchange b2m ELISA.
On to B1, for which the peptide exchange yield is over 75%. B2 returned a peptide exchange yield of over 75%.

On to B3, for which the peptide exchange yield was in the range of 50 to 75%. With B4 the figure was over 75%; with B5, 50 to 75%; with B6, 50 to 75%. B7 returned a peptide exchange yield of over 75%. For the molecule B8, the peptide exchange yield is 20 to 49%. With B9 the figure was over 75%; with B10, over 75%; with B11, 50 to 75%.

B12 showed a peptide exchange yield of 50 to 75%.

For B13, the peptide exchange yield lay in the range of 50 to 75%. B14 showed a peptide exchange yield of over 75%.

B15 returned a peptide exchange yield of over 75%.

As to B16, the peptide exchange yield was 50 to 75%. Then B17, with over 75%. Molecule B18 had a peptide exchange yield of over 75%.

The molecule B19 returned a peptide exchange yield of 50 to 75%. In the case of B20, the peptide exchange yield was in the range of 50 to 75%. B21 displayed a peptide exchange yield of 50 to 75%. In the case of B22, the peptide exchange yield was over 75%.

The molecule B23 showed a peptide exchange yield of over 75%.

In turn, B24 had a peptide exchange yield of 50 to 75%.

B25 came in with a peptide exchange yield of 50 to 75%. With B26 the figure was 50 to 75%; with B27, over 75%; with B28, over 75%. B29 registered a peptide exchange yield of over 75%. B30 had a peptide exchange yield of 50 to 75%.

With B31, the peptide exchange yield was over 75%. As to B32, the peptide exchange yield was over 75%. Molecule B33 registered a peptide exchange yield of 50 to 75%. With B34 the figure was over 75%; with B35, 50 to 75%. In turn, B36 showed a peptide exchange yield of 50 to 75%. Consider B37, for which the peptide exchange yield is over 75%. B38 returned a peptide exchange yield of over 75%. In turn, B39 gave a peptide exchange yield of 50 to 75%. Then B40, with 20 to 49%; and B41, with 20 to 49%; and B42, with 50 to 75%. Take B43: the peptide exchange yield fell in the range of 20 to 49%. B44 came in with a peptide exchange yield of 50 to 75%.

On to B45, for which the peptide exchange yield was over 75%. Consider B46, for which the peptide exchange yield was over 75%. Then B47, with 50 to 75%; and B48, with over 75%; and B49, with over 75%. With B50, the peptide exchange yield is 50 to 75%. The molecule B51 showed a peptide exchange yield of 50 to 75%. Take B52: the peptide exchange yield was 50 to 75%. With B53 the figure was 50 to 75%.

Source of the values: patent US20170165338A1.
